The source of these data is PMC5647379, “Calmodulin confers calcium sensitivity to the stability of the distal intracellular assembly domain of Kv7.2 channels” (Scientific Reports, 2017).

The target of assay [1] is T1, dansylated calmodulin (D-CaM, 5-(dimethylamino)naphtalene-1-sulfonyl-calmodulin) (rat, UniProt P0DP29 1-149, dansyl (5-(dimethylamino)naphtalene-1-sulfonyl) label, residue not stated). The assay can be described thus: other fluorescence titration; as a2 but with an excess of free Ca2+ (3.9 µM; 9.63 mM Ca2+ added to the Fluorescence buffer); apparent affinity (EC50). Particulars: both partners purified.

Assay [2] has as its target T1, dansylated calmodulin (D-CaM, …). The assay can be described thus: other fluorescence titration; D-CaM 12.5 nM in the cuvette, increasing concentrations of GST-fusion protein; no Ca2+ (EGTA 10 mM); Tris-HCl 25 mM pH 7.4, KCl 120 mM, NaCl 5 mM, MgCl2 2 mM; 25 °C; apparent affinity (EC50 of a Hill fit to the fluorescence enhancement). The settings on record: both partners purified.

B1: GST-Kv7.2 AB (helices AB fused to GST) (domain or fragment)
chain: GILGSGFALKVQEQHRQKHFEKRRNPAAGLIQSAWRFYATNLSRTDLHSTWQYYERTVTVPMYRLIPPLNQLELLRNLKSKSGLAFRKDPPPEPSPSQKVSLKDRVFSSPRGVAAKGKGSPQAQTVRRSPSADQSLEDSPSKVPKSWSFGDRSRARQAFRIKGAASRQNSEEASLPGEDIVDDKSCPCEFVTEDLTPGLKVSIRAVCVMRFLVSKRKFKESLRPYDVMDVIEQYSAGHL
As to B1, the concentration for a half-maximal effect (EC50) (usually the concentration giving half of the maximal effect) in assay [1] came to 27.1 nM; in assay [2] it was 11 nM.
